{
  "source": "FireProtDB (doi:10.1021/bi801431x)",
  "proteins": {"B1": {"name": "Aspartate aminotransferase wild type, P00509 (protein)", "chain": "MFENITAAPADPILGLADLFRADERPGKINLGIGVYKDETGKTPVLTSVKKAEQYLLENETTKNYLGIDGIPEFGRCTQELLFGKGSALINDKRARTAQTPGGTGALRVAADFLAKNTSVKRVWVSNPSWPNHKSVFNSAGLEVREYAYYDAENHTLDFDALINSLNEAQAGDVVLFHGCCHNPTGIDPTLEQWQTLAQLSVEKGWLPLFDFAYQGFARGLEEDAEGLRAFAAMHKELIVASSYSKNFGLYNERVGACTLVAADSETVDRAFSQMKAAIRANYSNPPAHGASVVATILSNDALRAIWEQELTDMRQRIQRMRQLFVNTLQEKGANRDFSFIIKQNGMFSFSGLTKEQVLRLREEFGVYAVASGRVNVAGMTPDNMAPLCEAIVAVL"}},
  "details": "Escherichia coli (strain K12); pH 7.5; 25 °C; Urea; Fluorescence; Potassium phosphate 20 mM; reversible: Yes; whole UniProt chain shown",
  "note": "“And” between values parts separate entries of the source, which are not always exact repeats. Identical values can stand only once.",
  "data": [
    {"protein": "B1", "values": [
      {"measurement": "denaturant midpoint (higher = more stable)", "result": "3.89 M and 5.02 M"}
    ]}
  ]
}
